Measurements as given in patent US20180142032A1 (Sanofi, published 2018).

Assays:
[1] = biological target: T1, LAMP1_mL1_hL2_mL34_ΔGYQTI (mouse; human, UniProt P11438 25-369); assay: flow cytometry, transfected 293-F cells
T1 construct: on cells; also called pXL5988; not shown: transmembrane domain and cytoplasmic tail with GYQTI replaced by 5 Ala
T1 chain: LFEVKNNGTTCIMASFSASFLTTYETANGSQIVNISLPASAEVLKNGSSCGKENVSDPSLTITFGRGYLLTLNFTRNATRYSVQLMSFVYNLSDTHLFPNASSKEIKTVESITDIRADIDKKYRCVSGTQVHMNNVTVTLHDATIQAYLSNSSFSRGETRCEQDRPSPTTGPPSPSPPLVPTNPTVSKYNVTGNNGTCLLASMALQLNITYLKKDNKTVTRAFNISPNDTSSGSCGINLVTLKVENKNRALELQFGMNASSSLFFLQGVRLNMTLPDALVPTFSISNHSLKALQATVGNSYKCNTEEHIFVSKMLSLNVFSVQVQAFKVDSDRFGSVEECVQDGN

LAMP1_mL1_hL234_ΔGYQTI = biological target: T2, LAMP1_mL1_hL234_ΔGYQTI (mouse; human); assay: flow cytometry, transfected 293-F cells
T2 construct: on cells; also called pXL5668
T2 chain: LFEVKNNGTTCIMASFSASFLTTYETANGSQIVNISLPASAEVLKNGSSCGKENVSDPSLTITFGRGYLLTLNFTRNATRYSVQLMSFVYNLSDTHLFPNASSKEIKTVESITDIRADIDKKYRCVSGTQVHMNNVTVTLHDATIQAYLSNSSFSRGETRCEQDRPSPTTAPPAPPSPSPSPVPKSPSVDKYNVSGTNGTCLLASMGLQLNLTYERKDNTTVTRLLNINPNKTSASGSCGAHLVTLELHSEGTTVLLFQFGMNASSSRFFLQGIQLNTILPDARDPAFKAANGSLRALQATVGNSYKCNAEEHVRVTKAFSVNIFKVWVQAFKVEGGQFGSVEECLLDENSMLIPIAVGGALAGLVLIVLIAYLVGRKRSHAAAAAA

[2] = biological target: T3, human LAMP1 at the cell surface (human, UniProt P11279 29-417); assay: cell-based or functional assay
T3 sequence: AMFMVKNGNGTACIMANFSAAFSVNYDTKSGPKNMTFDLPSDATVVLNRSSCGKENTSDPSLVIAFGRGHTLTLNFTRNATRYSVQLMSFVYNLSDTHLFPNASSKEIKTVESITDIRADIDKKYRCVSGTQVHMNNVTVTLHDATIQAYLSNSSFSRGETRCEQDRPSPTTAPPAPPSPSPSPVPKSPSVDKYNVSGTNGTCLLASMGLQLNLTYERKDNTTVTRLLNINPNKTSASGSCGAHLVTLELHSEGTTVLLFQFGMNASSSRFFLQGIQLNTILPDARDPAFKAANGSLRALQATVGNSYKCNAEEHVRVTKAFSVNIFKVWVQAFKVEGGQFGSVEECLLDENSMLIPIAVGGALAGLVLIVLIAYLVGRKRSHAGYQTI

LAMP1::histag [3] = biological target: T4, LAMP1::histag (human, UniProt P11279 29-382); assay: ELISA on recombinant human LAMP1
T4 construct: extracellular domain without signal peptide, C-terminal 6 His tag, made in HEK293 cells; also called recombinant human LAMP1; human LAMP1 (29-382)
T4 sequence: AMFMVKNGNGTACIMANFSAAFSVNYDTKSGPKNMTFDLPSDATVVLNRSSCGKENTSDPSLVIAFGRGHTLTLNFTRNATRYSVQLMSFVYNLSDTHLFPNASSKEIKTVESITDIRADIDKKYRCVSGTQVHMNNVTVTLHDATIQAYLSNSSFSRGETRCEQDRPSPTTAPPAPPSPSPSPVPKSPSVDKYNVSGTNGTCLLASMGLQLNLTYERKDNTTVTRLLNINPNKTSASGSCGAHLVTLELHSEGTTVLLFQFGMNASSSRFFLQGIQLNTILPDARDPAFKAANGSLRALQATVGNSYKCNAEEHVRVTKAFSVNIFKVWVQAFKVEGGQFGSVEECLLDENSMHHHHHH

[4] = biological target: T5, recombinant human LAMP2 with a C-terminal 10 His-tag (human, UniProt P13473 29-375); assay: ELISA with soluble LAMP1 or LAMP2
T5 construct: bought; also called soluble LAMP2 protein (R&D Systems 6228-LM)
T5 sequence (P13473 other isoform, or with tags, fused parts or gaps): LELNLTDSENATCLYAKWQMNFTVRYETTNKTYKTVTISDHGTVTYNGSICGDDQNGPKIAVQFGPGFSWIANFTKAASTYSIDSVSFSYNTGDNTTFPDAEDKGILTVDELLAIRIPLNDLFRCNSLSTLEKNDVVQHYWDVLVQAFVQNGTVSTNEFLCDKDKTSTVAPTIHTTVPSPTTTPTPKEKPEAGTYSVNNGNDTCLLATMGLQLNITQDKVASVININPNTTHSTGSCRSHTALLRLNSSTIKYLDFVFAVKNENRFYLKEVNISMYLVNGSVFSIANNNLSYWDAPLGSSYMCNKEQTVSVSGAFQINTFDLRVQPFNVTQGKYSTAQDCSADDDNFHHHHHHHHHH

cLAMP1::histag [5] = biological target: T6, cLAMP1::histag (cynomolgus monkey, UniProt P11279 29-380 (human entry)); assay: ELISA on recombinant cynomolgus LAMP1
T6 construct: extracellular domain with C-terminal tag that includes 6 His; also called cynomolgus LAMP1 (27-380); cynomolgus monkey LAMP1 protein
T6 chain: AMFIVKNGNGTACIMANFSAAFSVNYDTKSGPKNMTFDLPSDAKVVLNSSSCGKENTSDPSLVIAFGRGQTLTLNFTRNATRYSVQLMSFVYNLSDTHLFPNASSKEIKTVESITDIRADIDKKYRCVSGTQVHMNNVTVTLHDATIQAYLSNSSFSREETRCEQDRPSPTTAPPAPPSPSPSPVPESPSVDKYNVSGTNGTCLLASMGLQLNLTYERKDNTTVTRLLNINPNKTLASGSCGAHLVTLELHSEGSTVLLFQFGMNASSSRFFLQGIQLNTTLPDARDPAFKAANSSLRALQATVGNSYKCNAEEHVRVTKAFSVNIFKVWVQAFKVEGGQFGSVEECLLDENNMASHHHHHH

[6] = biological target: T3, human LAMP1 at the cell surface; assay: flow cytometry, dissociated CR-IGR-034P colon PDX cells
Description: Advanced human primary colon tumor CR-IGR-034P was obtained from Patient-derived xenograft in mice. Tumor CR-IGR-034P was enzymatically dissociated using collagenase Type IV (Invitrogen; #17104-019) and deoxyribonuclease I (Invitrogen; #18047-019) for 1 h at 4° C. Cell viability was estimated by Viacount application using Guava® easyCyte™ 8HT Flow Cytometry System. […] 100 μL/well of goat anti-mouse IgG conjugated with Alexa647 (Invitrogen; # A2135) or goat anti-human IgG conjugated with Alexa488 (Invitrogen; # A11013) was added for 45 min at 4° C. and washed three times with PBS 1% BSA. The antibody binding was evaluated after centrifugation and resuspension of cells by adding 200 μl/well PBS 1% BSA and read using Guava® easyCyte™ 8HT Flow Cytometry System. EC50 values were estimated using BIOST@T-SPEED software.

[7] = biological target: T5, recombinant human LAMP2 with a …; assay: ELISA on coated soluble human LAMP2
cLAMP1::histag [8] = biological target: T6, cLAMP1::histag; assay: ELISA
LAMP1::histag [9] = biological target: T4, LAMP1::histag; assay: ELISA

B1: chMAb2 (antibody, human IgG1, kappa)
heavy: not shown
light: NIVLTQSPVSLAVSLGQRATISCRASESVDINGNTFMHWYQQKPGQSPKLVIYAASNIESGVPARFSGSGSSTDFTFTIDPVEADDVATYYCQQNIEDPWTFGGGTKVEIKRTVAAPSVFIFPPSDEQLKSGTASVVCLLNNFYPREAKVQWKVDNALQSGNSQESVTEQDSKDSTYSLSSTLTLSKADYEKHKVYACEVTHQGLSSPVTKSFNRGEC
notes: chimeric, human IgG1, Ckappa
binding result [1]: no binding | binding result (LAMP1_mL1_hL234_ΔGYQTI): no binding | ADCC EC50, NK batch 6712562616 [2]: 2 nM | ADCC EC50, NK batch 67125626389 [2]: 0.1 nM | ADCC EC50, NK batch 67125903091 [2]: 0.5 nM

B2: MAb4 (antibody, mouse IgG1, V domains shown)
VH: QVQLQQSGAELVRPGTSVKVSCKASGYAFTNYLIEWVKQRPGQGLEWIGVINPGSGGTNYNEKFKGKATLTADKSSSTAYMQLSSLTSDDSAVYFCARYRSYDWYFDVWGAGTTVTVSS
VL: DIQMTQSPASLSASVGETVTITCRVSGNIHNYLAWYQQKQGKSPQLLVYNAKTLADGVPSRFSGSGSGTQYSLKINSLQPEDFGSYYCQHFWSNPYTFGGGTKLEIK
notes: also called antibody from hybridoma 88LAMP1-2
EC50 (LAMP1::histag [3]): 0.39 nM | fold difference of EC50 (LAMP1 versus LAMP2) [4]: > 100 fold | EC50 (cLAMP1::histag [5]): 0.22 nM | EC50 [6]: 1.3 nM | binding result [7]: no binding (tested: 10 µg/mL) | EC50 (cLAMP1::histag [8]): 0.2 to 0.4 nM | EC50 (LAMP1::histag [9]): 0.2 to 0.4 nM
